The values that follow are results of earlier work, collected in PMC3089900.

The target in this data set is His276 (UniProt position 276, SEELDHALNDM). As to the kind of experiment: NMR. The note with it: in the presence of troponin T fragment TnT1.

Take “alpha-tropomyosin (striated muscle alpha-Tm) (Oryctolagus cuniculus (inferred; the article's alpha-Tm sequence discussion and preparations are rabbit))”: the pKa was 7.27−7.98.
